Article PMC9116965 (iScience, 2022)

Experiments:
[1] = molecular target: T1, SARS-CoV-2 WT RBD protein (SARS-CoV-2 (WT), UniProt P0DTC2); experiment: ELISA
SARS-CoV RBD protein = SARS-CoV RBD protein (Severe acute respiratory syndrome …, UniProt P59594); experiment: cell-based or functional assay
[2] = molecular target: T1, SARS-CoV-2 WT RBD protein; experiment: SPR

Binder | binding result [1] | other results
EY6A (antibody, V domains shown) VH: EVQLVESGGGVVQPGRSLRLSCAASAFTFSSYDMHWVRQAPGKGLEWVAVISYDGSNKYYADSVKGRFTISRDNSKNTLYLQMNSLRAEDTAVYYCAKDGGKLWVYYFDYWGQGTLVTVSS VL: not shown | binds | –
STS165 (full-length IgG form) (antibody, V domains shown) VH: EVQLVESGGGVVRPGGSLRLSCAASGFTFDDYGMSWVRQAPGKGLEWVSGINWNGGSTGYADSVKGRFTISRDNAKNSLYLQMNSLRAEDTALYHCARVGYCGGDCYSLSLAGFPDYWGQGTLVTVSS VL: not shown | – | pseudovirus neutralisation of SARS-CoV, IC50 (HEK-293T-hACE2 cells, luciferase) (SARS-CoV RBD protein): 2.09 µg/mL
STS165 Fab form (Fab, V domains shown) VH: EVQLVESGGGVVRPGGSLRLSCAASGFTFDDYGMSWVRQAPGKGLEWVSGINWNGGSTGYADSVKGRFTISRDNAKNSLYLQMNSLRAEDTALYHCARVGYCGGDCYSLSLAGFPDYWGQGTLVTVSS VL: not shown | – | fold decrease of binding affinity against the IgG form [2]: > 50 fold
H014 (antibody, V domains shown) VH: EVQLVQSGAEVKKPGATVKISCKVSGYSFSNYYIHWVKQAPGKSLEWIGYIDPFNGGTSDNLKFKGAATLTADTSTDTAYMELSSLRSEDTAVYYCARSEYDPYYVMDYWGQGTTVTVSS VL: IVLTQSPFQSVSPKEKVTITCRASQSISSNLHWYQQKPDQSPKLLIKYASQSISGIPSRFSGSGSGTDFTLTINSLEAEDFGIYFCQQTNFWPYIFGQGTKLEIL | binds | –
S2A4 (antibody, V domains shown) VH: EVQLVESGGGLVQPGGSLRLSCAASGFTFSSYWMNWVRQAPGKGLEWVANIKQDGSEKYYVDSVKGRFTISRDNAKNSLFLQMNSLRAEDTAVYYCARVWWLRGSFDYWGQGTLVTVSS VL: NFMLTQPHSVSESPGKTVTISCTGSSGSIASNYVQWYQQRPGSAPTTVIYEDNQRPSGVPDRFSGSIDSSSNSASLTISGLKTEDEADYYCQSYDSSNHVVFGGGTKLTVL | binds | –
